Results as given in US20240010682A1 (UNIVERSIT T BASEL, published 2024).
Numbering of substitutions follows the chain as printed.

T1: fibrin (Fb) network formed from human fibrinogen by thrombin (human, UniProt P02671 36-629; P02675 45-491; P02679 27-437, limits assumed)
T1 construct: Human fibrinogen (FIB 3; depleted of plasminogen, fibronectin and von Willebrand Factor), spiked with 1% AlexaFluor 488-labelled fibrinogen and clotted with thrombin and CaCl2; In the imaging experiments it is a cross-linked gel, not a soluble protein; also called Fb clot; Fb fibers
T1 sequence (looked up) 1: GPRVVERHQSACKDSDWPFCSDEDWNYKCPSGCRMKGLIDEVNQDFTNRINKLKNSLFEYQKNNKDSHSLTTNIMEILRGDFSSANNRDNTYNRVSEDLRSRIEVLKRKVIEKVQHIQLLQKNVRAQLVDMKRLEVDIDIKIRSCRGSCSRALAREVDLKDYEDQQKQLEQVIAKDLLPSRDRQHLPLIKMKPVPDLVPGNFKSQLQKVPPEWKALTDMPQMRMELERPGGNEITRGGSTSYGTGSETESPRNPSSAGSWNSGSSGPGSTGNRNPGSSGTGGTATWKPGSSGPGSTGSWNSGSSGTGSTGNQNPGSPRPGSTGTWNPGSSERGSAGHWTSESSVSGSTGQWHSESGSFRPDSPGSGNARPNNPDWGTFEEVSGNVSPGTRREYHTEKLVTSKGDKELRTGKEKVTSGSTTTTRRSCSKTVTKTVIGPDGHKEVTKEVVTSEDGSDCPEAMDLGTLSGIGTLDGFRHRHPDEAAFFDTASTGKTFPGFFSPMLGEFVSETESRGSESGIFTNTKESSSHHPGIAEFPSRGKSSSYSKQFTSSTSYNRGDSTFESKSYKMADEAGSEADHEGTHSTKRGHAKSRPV
T1 sequence (looked up) 2: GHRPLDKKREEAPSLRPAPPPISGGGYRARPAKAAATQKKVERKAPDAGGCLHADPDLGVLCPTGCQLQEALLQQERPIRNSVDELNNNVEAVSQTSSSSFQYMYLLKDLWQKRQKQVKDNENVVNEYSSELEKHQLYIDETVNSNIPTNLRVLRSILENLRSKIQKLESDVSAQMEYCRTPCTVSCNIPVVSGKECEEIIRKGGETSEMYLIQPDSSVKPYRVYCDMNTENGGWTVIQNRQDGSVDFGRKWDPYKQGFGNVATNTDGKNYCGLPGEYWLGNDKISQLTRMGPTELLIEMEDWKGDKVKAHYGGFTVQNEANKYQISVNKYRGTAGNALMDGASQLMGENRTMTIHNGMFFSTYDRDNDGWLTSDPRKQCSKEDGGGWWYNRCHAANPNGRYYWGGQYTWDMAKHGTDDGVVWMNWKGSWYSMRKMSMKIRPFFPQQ
T1 sequence (looked up) 3: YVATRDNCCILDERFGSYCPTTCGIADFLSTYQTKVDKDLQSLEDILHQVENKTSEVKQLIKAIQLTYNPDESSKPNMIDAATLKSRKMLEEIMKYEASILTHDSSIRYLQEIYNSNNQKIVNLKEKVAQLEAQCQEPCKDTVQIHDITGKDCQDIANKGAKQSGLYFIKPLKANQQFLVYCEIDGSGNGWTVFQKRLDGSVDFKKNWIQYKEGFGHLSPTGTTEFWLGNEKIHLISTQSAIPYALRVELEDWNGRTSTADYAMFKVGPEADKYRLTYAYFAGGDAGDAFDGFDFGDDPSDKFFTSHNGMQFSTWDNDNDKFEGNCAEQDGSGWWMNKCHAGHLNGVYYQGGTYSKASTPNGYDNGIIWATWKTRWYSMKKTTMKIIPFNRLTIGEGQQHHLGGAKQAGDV

B1: fluorescent hELP (f-hELP), hELP labelled with Atto647-N-hydroxysuccinimide (protein)
chain: MGHGVGVPGVGVPGAGVPGVGVPGVGVPGVGVPGVGVPGVGVPGVGVPGVGVPGEGVPGAGSGDQMMLPWPAVALSGVPGVGVPGVGVPGAGVPGVGVPGVGVPGVGVPGVGVPGVGVPGVGVPGVGVPGEGVPGAGSGDQMMLPWPAVALSGVPGVGVPGVGVPGAGVPGVGVPGVGVPGVGVPGVGVPGVGVPGVGVPGVGVPGEGVPGAGSGDQMMLPWPAVALSGVPGVGVPGVGVPGAGVPGVGVPGVGVPGVGVPGVGVPGVGVPGVGVPGVGVPGEGVPGAGSGDQMMLPWPAVALSGVPGVGVPGVGVPGAGVPGVGVPGVGVPGVGVPGVGVPGVGVPGVGVPGVGVPGEGVPGAGVPGVGVPGVGVPGAGVPGVGVPGVGVPGVGVPGVGVPGVGVPGVGVPGVGVPGEGVPGAGVPGVGVPGVGVPGAGVPGVGVPGVGVPGVGVPGVGVPGVGVPGVGVPGVGVPGEGVPGAGVPGVGVPGVGVPGAGVPGVGVPGVGVPGVGVPGVGVPGVGVPGVGVPGVGVPGEGVPGAGVPGVGVPGVGVPGAGVPGVGVPGVGVPGVGVPGVGVPGVGVPGVGVPGVGVPGEGVPGAGSGGSKGSSGVPGVGVPGVGVPGAGVPGVGVPGVGVPGVGVPGVGVPGVGVPGVGVPGVGVPGEGVPGAGSGGSKGSSGVPGVGVPGVGVPGAGVPGVGVPGVGVPGVGVPGVGVPGVGVPGVGVPGVGVPGEGVPGAGSGGSKGSSGVPGVGVPGVGVPGAGVPGVGVPGVGVPGVGVPGVGVPGVGVPGVGVPGVGVPGEGVPGAGSGGSKGSSGVPGWLDSLEFIA
modifications: chain 1 pos 1: N-terminal alpha-amine preferentially labelled with Atto647-NHS dye (about 0.95 dye per ELP), written M; minor labelling of K-block lysines is possible.
B2: fluorescent conELP (f-conELP), conELP labelled with Atto647-N-hydroxysuccinimide (other)
chain: B1 chain with Q65G, Q141G, Q217G, Q293G, K610G, K679G, K748G, K817G
modifications: chain 1 pos 1: N-terminal alpha-amine labelled with Atto647-NHS dye (about 0.95 dye per ELP), written M.
notes: also called f-conELPs; fluorescent-conELPs

Columns and labels:
[1] = target: fibrin (Fb) network formed from human fibrinogen by thrombin (human) (UniProt P02671); experiment: two-colour confocal fluorescence microscopy of Fb clots formed at 22 C, Coloc2 in ImageJ
[2] = target: fibrin (Fb) network formed from human fibrinogen by thrombin (human) (UniProt P02671); experiment: two-colour confocal fluorescence microscopy of Fb clots formed at 37 C, Coloc2 in ImageJ
[3] = target: T1, fibrin (Fb) network formed from human …; experiment: two-colour confocal fluorescence microscopy of Fb clots formed at 22 C, colocalisation (Coloc2)
Text: The inventors N-terminally labelled hELPs and conELPs with Atto647-N-hydroxysuccinimide (red channel) and confirmed they were still cross-linked by FXIIIa. Fluorescent-hELPs (f-hELPs) or fluorescent-conELPs (f-conELPs) were then integrated into Fb clots spiked with 1% AlexaFluor 488-labelled fibrinogen (Fg-488, green channel). The inventors used two color confocal fluorescence microscopy to characterize hELP and Fb network morphology, degree of hELP and Fb colocalization, and the influence of hELP phase transition on clot architecture. […] The inventors observed little to no fluorescence intensity in the red channel when only HEPES buffer or f-conELP were added during formation of Fb networks (FIG. 3a, left, HEPES & conELP).
To quantify hELP and Fb spatial colocalization, the inventors used Coloc2 in ImageJ to calculate Pearson's correlation coefficients (PCC) (J. Adler, I. Parmryd, Cytom. Part A 2010, 77, 733). For f-hELP-Fb clots at 22° C., a PCC between f-hELP and Fb channels of 0.69±0.1 indicated high spatial correlation. For f-conELP-Fb clots, a PCC value of 0.05±0.09 indicated no spatial correlation (FIG. 3b).

Pearson's correlation coefficient (PCC) between f-hELP and Fb channels [1]	Pearson's correlation coefficient (PCC) between ELP and Fb channels [2]	binding result [3]	Binder
0.69	0.163	–	B1
–	–	no binding (tested: 30 µM f-conELP)	B2
